Assay results published in patent US20160177276A1 (Merck KGaA, published 2016).
Values belong to the binder of their own block, whether it stands above or below them.

What was measured:
[1] = target: T1, CD47 (human, UniProt Q08722 19-323); assay: flow cytometry on CD47-transfected CHO cells
T1 construct: whole, on cells; Human by the cells used (blood of human donors; human Ramos, A549, BT474, Raji, Namalwa cells); also called human CD47

[2] = target: T2, HER2 (human, UniProt P04626 23-1255); assay: flow cytometry on BT474 cells
T2 construct: whole, on cells; The cells carry CD47 as well
Protocol: After washing with PBS+1% FBS, cells were incubated with FITC F(ab′)2 goat Anti-Human IgG, Fcγ (Jackson ImmunoResearch, West Grove, Pa.), diluted 1:200 in PBS+1% FBS for 60 min on ice. After washing again, cells were fixed with 1% formaldehyde in PBS. Cells were analyzed by flow cytometry (MACSQuant, Miltenyi Biotec, Cologne, Germany).

[3] = target: T1, CD47; assay: flow cytometry on CD47-low human Ramos cells
Protocol: (§1) After washing again, cells were fixed with 1% formaldehyde in PBS. Cells were analyzed by flow cytometry (MACSQuant, Miltenyi Biotec, Cologne, Germany).

[4] = target: T1, CD47; assay: flow cytometry on CD47-high (CD47-transfected) CHO cells
Protocol: as §1

binding result [1]: no binding
binding result [2]: binds
B1: Fcab(HER2) (other)
chain: EPKSSDKTHTCPPCPAPELLGGPSVFLFPPKPKDTLMISRTPEVTCVVVDVSHEDPEVKFNWYVDGVEVHNAKTKPREEQYNSTYRVVSVLTVLHQDWLNGKEYKCKVSNKALPAPIEKTISKAKGQPREPQVYTLPPSRDEYLYGDVSLTCLVKGFYPSDIAVEWESNGQPENNYKTTPPVLDSDGSFFLYSKLTVPRHSARMWRWAHGNVFSCSVMHEALHNHYTQKSLSLSPGK
notes: also called anti-HER2 Fcab H10-03-6

EC50 [3]: 6 nM
EC50 [4]: 7 nM
B2: chimeric antibody B6H12/huIgG1 (antibody, V domains shown)
VH: EVQLQESGGDLVKPGGSLKLSCAASGFTFSGYGMSWVRQTPDKRLEWVATITSGGTYTYYPDSVKGRFTISRDNAKNTLYLQIDSLKSEDTAIYFCARSLAGNAMDYWGQGTTVTVSS
VL: DIVITQSPATLSVTPGDRVSLSCRASQTISDYLHWYQQKSHESPRLLIKFASQSISGIPSRFSGSGSGSDFTLSINSVEPEDVGVYYCQNGHGFPRTFGGGTKLEIKR
notes: also called anti-CD47; anti-CD47 huIgG1

binding result [1]: no binding
B3: anti-CD20 huIgG1 (antibody, V domains shown)
VH: QVQLQQPGAELVKPGASVKMSCKASGYTFTSYNMHWVKQTPGRGLEWIGAIYPGNGDTSYNQKFKGKATLTADKSSSTAYMQLSSLTSEDSAVYYCARSTYYGGDWYFNVWGAGTTVTVSA
VL: QIVLSQSPAILSASPGEKVTMTCRASSSVSYIHWFQQKPGSSPKPWIYATSNLASGVPVRFSGSGSGTSYSLTISRVEAEDAATYYCQQWTSNPPTFGGGTKLEIKR
notes: Control in standard monoclonal antibody format, huIgG1, based on 2B8 (rituximab); not shown: rest of the human IgG1 heavy chain
